From PMC5349596 come the findings set out here.

In the data set the target is Asp74 (UniProt position 74, WARYIDWVITT). Briefly: UV-vis. The settings on record: room temperature (approx. 25 °C); not stated (no added salt; low-millimolar buffer mixture; pH adjusted with concentrated H2SO4); 0.89 mM citric acid, 0.89 mM MES, 1.1 mM TES, 0.78 mM TAPS, 1.1 mM CHES and 0.33 mM CAPS; Folded, retinal-bound (nearly 100% all-trans), detergent-solubilised; dark or light adaptation during the titration not stated.

For orientation: pKa means the negative logarithm of the acid dissociation constant. Regarding “Rubrobacter xylanophilus rhodopsin (RxR) (Rubrobacter xylanophilus DSM 9941)”, the pKa amounted to 1.3 ± 0.17.
